In data set [1] the test system is normal human CD34+ cells. As to the kind of experiment: Erythroid differentiation of normal human CD34+ cells, day 10. It counts as cell-based. The note with it: 7.5 μm or 10 μm. The method, then: (§1) To assess the effects of TAT-MLL peptide on hematopoiesis, normal human CD34^+ cells were incubated with either the TAT-MLL peptide or the TAT-scrambled peptide at a concentration of either 7.5 μm or 10 μm. There was no effect of either the TAT-MLL peptide or the TAT-scrambled peptide on myeloid or erythroid differentiation. […] CD14-PE, CD15-FITC, CD71-FITC and GlyA (CD235a)-PE antibodies were obtained from Becton Dickinson

Data set [2] relates to normal human CD34+ cells. In words: Myeloid differentiation of normal human CD34+ cells, day 10. It counts as cell-based. Conditions: 7.5 μm or 10 μm. On the procedure:
as §1

Data set [3] deals with T1, interaction of transfected MLL with endogenous menin (Homo sapiens, UniProt O00255).
T1 construct: endogenous in cells; host or cells: 293 cells (lysate; cells transfected with FLAG-MLL 1-330)
T1 sequence (O00255 1-610): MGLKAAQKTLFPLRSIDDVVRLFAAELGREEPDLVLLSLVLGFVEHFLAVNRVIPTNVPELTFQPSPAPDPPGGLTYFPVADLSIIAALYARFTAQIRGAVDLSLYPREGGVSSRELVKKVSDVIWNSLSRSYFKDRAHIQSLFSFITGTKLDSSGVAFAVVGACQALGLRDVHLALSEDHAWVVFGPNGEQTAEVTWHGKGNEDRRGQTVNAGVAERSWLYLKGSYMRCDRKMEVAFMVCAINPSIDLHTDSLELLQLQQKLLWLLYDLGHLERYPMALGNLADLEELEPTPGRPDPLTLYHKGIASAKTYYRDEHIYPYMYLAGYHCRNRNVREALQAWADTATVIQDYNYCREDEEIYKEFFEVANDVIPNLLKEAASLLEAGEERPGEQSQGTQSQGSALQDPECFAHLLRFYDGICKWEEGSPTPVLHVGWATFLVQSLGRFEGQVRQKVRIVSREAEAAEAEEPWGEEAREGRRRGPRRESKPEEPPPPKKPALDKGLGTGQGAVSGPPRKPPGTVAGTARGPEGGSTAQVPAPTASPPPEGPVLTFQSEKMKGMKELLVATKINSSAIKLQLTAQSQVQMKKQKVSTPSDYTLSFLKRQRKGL
As to the kind of experiment: Disruption of binding of transfected FLAG-tagged MLL 1-330 to endogenous menin (anti-FLAG immunoprecipitation, anti-menin Western blot). The note with it: for block of the interaction of transfected MLL with endogenous menin (Western blot, FIG. 1): lysates of 293 cells transfected with FLAG-tagged MLL 1-330, incubated with peptide, anti-FLAG IP, anti-menin blot; for inhibition of the binding of transfected MLL 1-330 to endogenous menin (Western blot, FIG. 2): each peptide tested at 10, 20, and 30 μM. On the procedure: To determine the precise domain that mediates the binding of MLL to menin, a series of peptides from the N-terminus of MLL were synthesized. To assess disruption of binding of transfected MLL to endogenous menin, a FLAG-tagged MLL 1-330 construct was transfected into 293 cells and the cell lysates were incubated with a series of peptides listed below or with water as a control. Cell lysates were immunoprecipitated with anti-FLAG antibody (Sigma), separated by SDS-PAGE and blotted with an anti-menin antibody (Bethyl Laboratories Inc, or Santa-Cruz). The amino acid numbers from the N-terminus of MLL are indicated below (preceding the amino acid sequence) for the peptides analyzed for their ability to disrupt the interaction of MLL and menin.
Conditional inactivation of menin results in the reversal of the transforming properties of MLL fusion proteins. A high affinity menin binding domain has been localized to the N-terminal residues of MLL, and deletion of residues 6 through 10 of MLL prevents MLL-ELL from transforming hematopoietic progenitor cells. To target the MLL-menin interaction, a series of peptides were developed for the potential to block the interaction of menin with MLL. To establish the activity of these peptides, lysates of cells transfected with FLAG-tagged N-terminal MLL sequences were examined. The lysates were immunoprecipitated with a FLAG antibody, incubated with either an MLL peptide or a control scrambled peptide, and then blotted with an anti-menin antibody. […] To examine the activity of the TAT-MLL peptide, mouse and human leukemia cell lines were treated with the TAT-MLL peptide. […] (#TIB-202, American Type Culture Collection, Manassas, Va.).

From US8242078B2, “Therapeutics to inhibit MLL-menin interaction for treating leukemia” (The University of Chicago, priority 2006, dated 2012) come the findings set out here.

Entries after “also recorded” stand apart in the source; their conditions may differ. Peptide text beside a SMILES is read from it.

`C[C@H](NC(=O)[C@@H]1CCCN1C(=O)[C@H](Cc1ccccc1)NC(=O)[C@H](CCCNC(=N)N)NC(=O)[C@H](Cc1c[nH]c2ccccc12)NC(=O)[C@H](CCCNC(=N)N)NC(=O)[C@H](CS)NC(=O)CNC(=O)CNC(=O)[C@H](CCCNC(=N)N)NC(=O)[C@H](CCCNC(=N)N)NC(=O)[C@H](CCCNC(=N)N)NC(=O)[C@H](CCC(N)=O)NC(=O)[C@H](CCCNC(=N)N)NC(=O)[C@H](CCCNC(=N)N)NC(=O)[C@H](CCCCN)NC(=O)[C@H](CCCCN)NC(=O)[C@@H](N)CCCNC(=N)N)C(=O)N[C@@H](CCCNC(=N)N)C(=O)N1CCC[C@H]1C(=O)NCC(=O)O` [TAT-MLL, RKKRRQRRR-GG-CRWRFPARPG (SEQ ID NO: 15)] (H-RKKRRQRRRGGCRWRFPARPG-OH): the “effect on erythroid differentiation (in words)” value in the data set on normal human CD34+ cells [1] was “no effect”. Besides, the “effect on myeloid differentiation (in words)” value with normal human CD34+ cells [2] is “no effect”. “AHSCRWRFPARPG (SEQ ID NO: 11) [MLL peptide 2-14, peptide from the N-terminus of MLL, amino acids 2-14]”: in data set [3], the “block of the interaction of transfected MLL with endogenous menin (Western blot, FIG. 1)” value (“block” below) is listed as “block the interaction of transfected MLL with endogenous menin”. For “AHSCRWRFPARPGTTGG (SEQ ID NO: 7) [MLL peptide 2-18, peptide from the N-terminus of MLL, amino acids 2-18]”, the “block” value in data set [3] is given as “block the interaction of transfected MLL with endogenous menin”. Consider “CRWRFPARPG (SEQ ID NO: 14) [MLL peptide 5-14]”, for which, in data set [3], the “inhibition of the binding of transfected MLL 1-330 to endogenous menin (Western blot, FIG. 2)” value was “dose-dependent inhibition” and the “block” value is on record as “block the interaction of transfected MLL with endogenous menin; also recorded: sufficient to block interaction with endogenous menin”. “CRWRFPARPGTTGG (SEQ ID NO: 10) [MLL peptide 5-18, peptide from the N-terminus of MLL, amino acids 5-18]”: in data set [3], the “block” value is reported as “block the interaction of transfected MLL with endogenous menin”.

With “HSCRWRFPARPG (SEQ ID NO: 12) [MLL peptide 3-14, peptide from the N-terminus of MLL, amino acids 3-14]”, in data set [3], the “block” value is listed as “block the interaction of transfected MLL with endogenous menin”. For the molecule “HSCRWRFPARPGTTGG (SEQ ID NO: 8) [MLL peptide 3-18, peptide from the N-terminus of MLL, amino acids 3-18]”, the “block” value in data set [3] is “block the interaction of transfected MLL with endogenous menin”. Still for that read-out and setting: the same measure for “MAHSCRWRFP (SEQ ID NO: 19) [MLL peptide 1-10, peptide from the N-terminus of MLL, amino acids 1-10]”: “do not block the interaction of MLL with menin”; for “MAHSCRWRFPA (SEQ ID NO: 20) [MLL peptide 1-11, peptide from the N-terminus of MLL, amino acids 1-11]”: “do not block the interaction of MLL with menin”; for “MAHSCRWRFPAR (SEQ ID NO: 21) [MLL peptide 1-12, peptide from the N-terminus of MLL, amino acids 1-12]”: “do not block the interaction of MLL with menin”. Still for that read-out and setting: then “MAHSCRWRFPARP (SEQ ID NO: 1) [MLL peptide 1-13, peptide from the N-terminus of MLL, amino acids 1-13]”, with “block the interaction of transfected MLL with endogenous menin”; and “MAHSCRWRFPARPG (SEQ ID NO: 2) [MLL peptide 1-14, peptide from the N-terminus of MLL, amino acids 1-14]”, with “block the interaction of transfected MLL with endogenous menin”; and “MAHSCRWRFPARPGTTGG (SEQ ID NO: 3) [MLL peptide 1-18, peptide from the N-terminus of MLL, amino acids 1-18]”, with “block the interaction of transfected MLL with endogenous menin”. The same measure, in the same setting: the same measure for “MAHSCRWRFPARPGTTGGGGGG (SEQ ID NO: 4) [MLL peptide 1-22, peptide from the N-terminus of MLL, amino acids 1-22]”: “block the interaction of transfected MLL with endogenous menin”; for “MAHSCRWRFPARPGTTGGGGGGGRRG (SEQ ID NO: 5) [MLL peptide 1-26, peptide from the N-terminus of MLL, amino acids 1-26]”: “block the interaction of transfected MLL with endogenous menin”. For the molecule “MAHSCRWRFPARPGTTGGGGGGGRRGLGGG (SEQ ID NO: 6) [MLL peptide 1-30, peptide from the N-terminus of MLL, amino acids 1-30]”, the “block” value in data set [3] is “block the interaction of transfected MLL with endogenous menin”. As for “RFPARPGTTGG (SEQ ID NO: 24) [MLL peptide 8-18, peptide from the N-terminus of MLL, amino acids 8-18]”, the “block” value in data set [3] is reported as “do not block the interaction of MLL with menin”. Regarding “RKKRRQRRR-GG-MAHSCRWRFPARPGTTGG (SEQ ID NO: 17) (RKKRRQRRRGGMAHSCRWRFPARPGTTGG) [TAT-MLL 1-18, longer MLL peptide, residues 1-18, fused to TAT]”, in data set [3], the “inhibition of the binding of transfected MLL 1-330 to endogenous menin (Western blot, FIG. 2)” value is “dose-dependent inhibition”.

In the case of “RWRFPARPG (SEQ ID NO: 25) [MLL peptide 6-14, peptide from the N-terminus of MLL, amino acids 6-14]”, in data set [3], the “block” value is listed as “do not block the interaction of MLL with menin”. Turning to “RWRFPARPGTTGG (SEQ ID NO: 22) [MLL peptide 6-18, peptide from the N-terminus of MLL, amino acids 6-18]”, in data set [3], the “block” value is “do not block the interaction of MLL with menin”. For the molecule “SCRWRFPARPG (SEQ ID NO: 13) [MLL peptide 4-14, peptide from the N-terminus of MLL, amino acids 4-14]”, in data set [3], the “block” value is on record as “block the interaction of transfected MLL with endogenous menin”. For the molecule “SCRWRFPARPGTTGG (SEQ ID NO: 9) [MLL peptide 4-18, peptide from the N-terminus of MLL, amino acids 4-18]”, the “block” value in data set [3] was “block the interaction of transfected MLL with endogenous menin”. Consider “WRFPARPGTTGG (SEQ ID NO: 23) [MLL peptide 7-18, peptide from the N-terminus of MLL, amino acids 7-18]”, for which, in data set [3], the “block” value is “do not block the interaction of MLL with menin”.
